Source: patent US20230242651A1 (published 2023)
Changes are numbered by the printed parent chain.

B1: Vκ3/VH5 consensus λ-capped, human IL23R specific scFv (scFv)
scFv: DIVLTQSPATLSLSPGERATLSCQASENIYSFLAWYQQKPGQAPRLLIYSASKLAAGVPARFSGSGSGTDFTLTISSLEPEDFAVYYCQQTNRYSNPDIYNVFGGGTKLTVLGGGGGSGGGGSGGGGSGGGGSEVQLVQSGAEVKKPGESLKISCKGSGIDFNSNYYMCWVRQMPGKGLEWMGCIYVGSHVNTYYANWAKGQVTISADKSISTAYLQWSSLKASDTAMYYCATSGSSVLYFKFWGQGTLVTVSS
notes: scFv VL-linker-VH, made in E. coli; also called Vκ3VH5 capped
B2: Vκ1/VH1A consensus λ-capped, human IL23R specific scFv (scFv)
scFv: DIQMTQSPSSLSASVGDRVTITCQASENIYSFLAWYQQKPGKAPKLLIYSASKLAAGVPSRFSGSGSGTDFTLTISSLQPEDFATYYCQQTNRYSNPDIYNVFGGGTKLTVLGGGGGSGGGGSGGGGSGGGGSQVQLVQSGAEVKKPGSSVKVSCKASGIDFNSNYYMCWVRQAPGQGLEWMGCIYVGSHVNTYYANWAKGRVTITADESTSTAYMELSSLRSEDTAVYYCATSGSSVLYFKFWGQGTLVTVSS
notes: scFv VL-linker-VH, made in E. coli; also called Vκ1VH1A capped
B3: Vκ1/VH1B consensus λ-capped, human IL23R specific scFv (scFv)
scFv: B2 scFv with S149A, I205M, A207R, E209T, T211I
notes: scFv VL-linker-VH, made in E. coli; also called Vκ1VH1B capped
B4: Vκ1/VH2 consensus λ-capped, human IL23R specific scFv (scFv)
scFv: DIQMTQSPSSLSASVGDRVTITCQASENIYSFLAWYQQKPGKAPKLLIYSASKLAAGVPSRFSGSGSGTDFTLTISSLQPEDFATYYCQQTNRYSNPDIYNVFGGGTKLTVLGGGGGSGGGGSGGGGSGGGGSQVQLKESGPALVKPTQTLTLTCTFSGIDFNSNYYMCWIRQPPGKALEWLACIYVGSHVNTYYANWAKGRLTISKDTSKNQVVLTMTNMDPVDTATYYCATSGSSVLYFKFWGQGTLVTVSS
notes: scFv VL-linker-VH, made in E. coli; also called Vκ1VH2 capped
B5: Vκ3/VH4 consensus λ-capped, human IL23R specific scFv (scFv)
scFv: DIVLTQSPATLSLSPGERATLSCQASENIYSFLAWYQQKPGQAPRLLIYSASKLAAGVPARFSGSGSGTDFTLTISSLEPEDFAVYYCQQTNRYSNPDIYNVFGGGTKLTVLGGGGGSGGGGSGGGGSGGGGSQVQLQESGPGLVKPSETLSLTCTVSGIDFNSNYYMCWIRQPPGKGLEWIGCIYVGSHVNTYYANWAKGRVTISVDTSKNQFSLKLSSVTAADTAVYYCATSGSSVLYFKFWGQGTLVTVSS
notes: scFv VL-linker-VH, made in E. coli; also called Vκ3VH4 capped
B6: Vκ3/VH3 consensus λ-capped, human IL23R specific scFv (scFv)
scFv: DIVLTQSPATLSLSPGERATLSCQASENIYSFLAWYQQKPGQAPRLLIYSASKLAAGVPARFSGSGSGTDFTLTISSLEPEDFAVYYCQQTNRYSNPDIYNVFGGGTKLTVLGGGGGSGGGGSGGGGSGGGGSEVQLVESGGGLVQPGGSLRLSCAASGIDFNSNYYMCWVRQAPGKGLEWVSCIYVGSHVNTYYANWAKGRFTISRDNSKNTLYLQMNSLRAEDTAVYYCATSGSSVLYFKFWGQGTLVTVSS
notes: scFv VL-linker-VH, made in E. coli; also called Vκ3VH3 capped
B7: Vκ2/VH2 consensus λ-capped, human IL23R specific scFv (scFv)
scFv: DIVMTQSPLSLPVTPGEPASISCQASENIYSFLAWYLQKPGQSPQLLIYSASKLAAGVPDRFSGSGSGTDFTLKISRVEAEDVGVYYCQQTNRYSNPDIYNVFGGGTKLTVLGGGGGSGGGGSGGGGSGGGGSQVQLKESGPALVKPTQTLTLTCTFSGIDFNSNYYMCWIRQPPGKALEWLACIYVGSHVNTYYANWAKGRLTISKDTSKNQVVLTMTNMDPVDTATYYCATSGSSVLYFKFWGQGTLVTVSS
notes: scFv VL-linker-VH, made in E. coli; also called Vκ2VH2 capped
B8: Vκ2/VH4 consensus (uncapped), human IL23R specific scFv (scFv)
scFv: DIVMTQSPLSLPVTPGEPASISCQASENIYSFLAWYLQKPGQSPQLLIYSASKLAAGVPDRFSGSGSGTDFTLKISRVEAEDVGVYYCQQTNRYSNPDIYNVFGQGTKVEIKRGGGGSGGGGSGGGGSGGGGSQVQLQESGPGLVKPSETLSLTCTVSGIDFNSNYYMCWIRQPPGKGLEWIGCIYVGSHVNTYYANWAKGRVTISVDTSKNQFSLKLSSVTAADTAVYYCATSGSSVLYFKFWGQGTLVTVSS
notes: scFv VL-linker-VH, made in E. coli; Vκ framework IV (uncapped, full consensus); also called Vκ2VH4 uncapped
B9: Vκ2/VH3 consensus (uncapped), human IL23R specific scFv (scFv)
scFv: DIVMTQSPLSLPVTPGEPASISCQASENIYSFLAWYLQKPGQSPQLLIYSASKLAAGVPDRFSGSGSGTDFTLKISRVEAEDVGVYYCQQTNRYSNPDIYNVFGQGTKVEIKRGGGGSGGGGSGGGGSGGGGSEVQLVESGGGLVQPGGSLRLSCAASGIDFNSNYYMCWVRQAPGKGLEWVSCIYVGSHVNTYYANWAKGRFTISRDNSKNTLYLQMNSLRAEDTAVYYCATSGSSVLYFKFWGQGTLVTVSS
notes: scFv VL-linker-VH, made in E. coli; Vκ framework IV (uncapped, full consensus); also called Vκ2VH3 uncapped
B10: Vκ3/VH2 consensus (uncapped), human IL23R specific scFv (scFv)
scFv: DIVLTQSPATLSLSPGERATLSCQASENIYSFLAWYQQKPGQAPRLLIYSASKLAAGVPARFSGSGSGTDFTLTISSLEPEDFAVYYCQQTNRYSNPDIYNVFGQGTKVEIKRGGGGSGGGGSGGGGSGGGGSQVQLKESGPALVKPTQTLTLTCTFSGIDFNSNYYMCWIRQPPGKALEWLACIYVGSHVNTYYANWAKGRLTISKDTSKNQVVLTMTNMDPVDTATYYCATSGSSVLYFKFWGQGTLVTVSS
notes: scFv VL-linker-VH, made in E. coli; Vκ framework IV (uncapped, full consensus); also called Vκ3VH2 uncapped
B11: Vκ3/VH1A consensus (uncapped), human IL23R specific scFv (scFv)
scFv: DIVLTQSPATLSLSPGERATLSCQASENIYSFLAWYQQKPGQAPRLLIYSASKLAAGVPARFSGSGSGTDFTLTISSLEPEDFAVYYCQQTNRYSNPDIYNVFGQGTKVEIKRGGGGSGGGGSGGGGSGGGGSQVQLVQSGAEVKKPGSSVKVSCKASGIDFNSNYYMCWVRQAPGQGLEWMGCIYVGSHVNTYYANWAKGRVTITADESTSTAYMELSSLRSEDTAVYYCATSGSSVLYFKFWGQGTLVTVSS
notes: scFv VL-linker-VH, made in E. coli; Vκ framework IV (uncapped, full consensus); also called Vκ3VH1A uncapped
B12: Vκ3/VH1B consensus (uncapped), human IL23R specific scFv (scFv)
scFv: B11 scFv with S149A, I205M, A207R, E209T, T211I
notes: scFv VL-linker-VH, made in E. coli; Vκ framework IV (uncapped, full consensus); also called Vκ3VH1B uncapped
B13: Vκ2/VH6 consensus (uncapped), human IL23R specific scFv (scFv)
scFv: DIVMTQSPLSLPVTPGEPASISCQASENIYSFLAWYLQKPGQSPQLLIYSASKLAAGVPDRFSGSGSGTDFTLKISRVEAEDVGVYYCQQTNRYSNPDIYNVFGQGTKVEIKRGGGGSGGGGSGGGGSGGGGSQVQLQQSGPGLVKPSQTLSLTCAISGIDFNSNYYMCWIRQSPGRGLEWLGCIYVGSHVNTYYANWAKGRITINPDTSKNQFSLQLNSVTPEDTAVYYCATSGSSVLYFKFWGQGTLVTVSS
notes: scFv VL-linker-VH, made in E. coli; Vκ framework IV (uncapped, full consensus); also called Vκ2VH6 uncapped
B14: Vκ2/VH5 consensus (uncapped), human IL23R specific scFv (scFv)
scFv: DIVMTQSPLSLPVTPGEPASISCQASENIYSFLAWYLQKPGQSPQLLIYSASKLAAGVPDRFSGSGSGTDFTLKISRVEAEDVGVYYCQQTNRYSNPDIYNVFGQGTKVEIKRGGGGSGGGGSGGGGSGGGGSEVQLVQSGAEVKKPGESLKISCKGSGIDFNSNYYMCWVRQMPGKGLEWMGCIYVGSHVNTYYANWAKGQVTISADKSISTAYLQWSSLKASDTAMYYCATSGSSVLYFKFWGQGTLVTVSS
notes: scFv VL-linker-VH, made in E. coli; Vκ framework IV (uncapped, full consensus); also called Vκ2VH5 uncapped
B15: Vκ2/VH1B consensus λ-capped, human IL23R specific scFv (scFv)
scFv: DIVMTQSPLSLPVTPGEPASISCQASENIYSFLAWYLQKPGQSPQLLIYSASKLAAGVPDRFSGSGSGTDFTLKISRVEAEDVGVYYCQQTNRYSNPDIYNVFGGGTKLTVLGGGGGSGGGGSGGGGSGGGGSQVQLVQSGAEVKKPGASVKVSCKASGIDFNSNYYMCWVRQAPGQGLEWMGCIYVGSHVNTYYANWAKGRVTMTRDTSISTAYMELSSLRSEDTAVYYCATSGSSVLYFKFWGQGTLVTVSS
notes: scFv VL-linker-VH, made in E. coli; also called Vκ2VH1B capped

molecular target: T1, human interleukin-23 receptor (IL23R) (human, UniProt Q5VWK5 24-355, limits assumed); assay: SPR; KD of the capped scFv over KD of its uncapped counterpart
T1 construct: also called human IL23R
T1 sequence (looked up): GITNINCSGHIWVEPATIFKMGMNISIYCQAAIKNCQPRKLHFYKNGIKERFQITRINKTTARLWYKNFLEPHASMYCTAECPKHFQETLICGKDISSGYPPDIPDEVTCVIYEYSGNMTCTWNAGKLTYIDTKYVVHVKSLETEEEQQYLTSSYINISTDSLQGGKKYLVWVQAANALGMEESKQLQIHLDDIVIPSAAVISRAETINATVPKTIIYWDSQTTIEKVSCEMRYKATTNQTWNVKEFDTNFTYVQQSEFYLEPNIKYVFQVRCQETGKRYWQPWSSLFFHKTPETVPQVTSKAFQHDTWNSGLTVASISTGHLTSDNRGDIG
Procedure, shortened: (§1)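 Affinity values for human IL23R come from surface plasmon resonance, expressed as rate constants and dissociation constant or as the λ-capped to uncapped dissociation-constant ratio. The tested molecules were humanized rabbit scFv on consensus germline framework pairs, either uncapped or with Vκ framework IV replaced by a Vλ germline sequence (λ-cap), refolded from E. coli inclusion bodies.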

Row | Binder | Ratio (capped/uncapped) of KD
1 | B1 | 1.6
2 | B2 | 8.3
3 | B3 | 1.2
4 | B4 | 0.3
5 | B5 | 0.9
6 | B6 | 0.6

molecular target: T1, human interleukin-23 receptor (IL23R); assay: SPR, scFv
Procedure, shortened: as §1

Row | Binder | Kd | koff | kon
7 | B7 | 0.0741 nM | 0.000102 s⁻¹ | 1.38e+06 M⁻¹ s⁻¹
8 | B8 | 0.125 nM | 0.000157 s⁻¹ | 1.26e+06 M⁻¹ s⁻¹
9 | B1 | 0.864 nM | 0.0013 s⁻¹ | 1.5e+06 M⁻¹ s⁻¹
10 | B9 | 0.0236 nM | 4.3e-05 s⁻¹ | 1.82e+06 M⁻¹ s⁻¹
11 | B10 | 0.462 nM | 0.000363 s⁻¹ | 786000 M⁻¹ s⁻¹
12 | B11 | 0.297 nM | 0.000479 s⁻¹ | 1.61e+06 M⁻¹ s⁻¹
13 | B12 | 0.455 nM | 0.000724 s⁻¹ | 1.59e+06 M⁻¹ s⁻¹
14 | B2 | 0.166 nM | 0.000616 s⁻¹ | 3.71e+06 M⁻¹ s⁻¹
15 | B3 | 0.199 nM | 0.000478 s⁻¹ | 2.4e+06 M⁻¹ s⁻¹
16 | B13 | 3.24 nM | 0.000288 s⁻¹ | 88700 M⁻¹ s⁻¹
17 | B14 | 0.303 nM | 0.000475 s⁻¹ | 1.57e+06 M⁻¹ s⁻¹
18 | B15 | 0.143 nM | 0.000326 s⁻¹ | 2.29e+06 M⁻¹ s⁻¹
19 | B4 | 0.0731 nM | 0.000128 s⁻¹ | 1.76e+06 M⁻¹ s⁻¹
20 | B5 | 0.123 nM | 0.000288 s⁻¹ | 2.35e+06 M⁻¹ s⁻¹
21 | B6 | 0.022 nM | 6.38e-05 s⁻¹ | 2.89e+06 M⁻¹ s⁻¹

molecular target: T1, human interleukin-23 receptor (IL23R); assay: SPR, scFv (summary table)
Procedure, shortened: as §1

Row | Binder | Kd
22 | B7 | 0.0741 nM
23 | B8 | 0.125 nM
24 | B1 | 0.864 nM
25 | B9 | 0.0236 nM
26 | B10 | 0.462 nM
27 | B11 | 0.297 nM
28 | B12 | 0.455 nM
29 | B2 | 0.166 nM
30 | B3 | 0.199 nM
31 | B13 | 3.24 nM
32 | B14 | 0.303 nM
33 | B15 | 0.143 nM
34 | B4 | 0.0731 nM
35 | B5 | 0.123 nM
36 | B6 | 0.022 nM
